# Reference: patent US20240084031A1 (Seagen, published 2024)
# T1: human CD70 on CD70 positive cell lines (human, UniProt P32970 1-193)
# T1 sequence (looked up): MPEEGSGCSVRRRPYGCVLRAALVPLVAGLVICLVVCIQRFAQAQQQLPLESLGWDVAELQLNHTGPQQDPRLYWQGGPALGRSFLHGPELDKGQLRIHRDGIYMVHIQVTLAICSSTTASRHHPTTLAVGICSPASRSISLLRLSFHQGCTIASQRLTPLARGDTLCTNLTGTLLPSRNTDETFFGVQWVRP
# Experiments:
# [1] = target: T1, human CD70 on CD70 positive cell lines; experiment: cell-based or functional assay
# [2] = target: T1, human CD70 on CD70 positive cell lines; experiment: saturation binding of europium-labelled antibody to CD70+ ACHN cells (apparent KD)
# From the text: (§1) Humanized 1F6 antibody derivatives HDLA (hVHD and hVLA), HHLA (hVHH and hVLA), and HJLA (hVHJ and hVLA), and c1F6 were transiently expressed in 293 cells, labeled with europium using the Eu-N1 iodoacetamido chelate (Perkin Elmer), and analyzed for saturation binding to a panel of CD70 positive cell lines as described in detail in U.S. Patent Application No. 60/673,070, filed Apr. 19, 2005; and PCT International Publication No. WO 2006/113909.
# [3] = target: T1, human CD70 on CD70 positive cell lines; experiment: saturation binding of europium-labelled antibody to CD70+ 786-O cells (apparent KD)
# From the text: as §1
# [4] = target: T1, human CD70 on CD70 positive cell lines; experiment: saturation binding of europium-labelled antibody to CD70+ Caki-2 cells (apparent KD)
# From the text: as §1
# [5] = target: T1, human CD70 on CD70 positive cell lines; experiment: saturation binding of europium-labelled antibody to CD70+ Caki-1 cells (apparent KD)
# From the text: as §1
# [6] = target: T2, human FcγRI, full length on stably transfected CHO cells (human, UniProt P12314 16-374); experiment: cell-based competition binding, flow cytometry (LSRII): serial dilutions of unlabelled competitor against 50 nM Alexa Fluor 488-labelled h1F6 IgG1 on CHO cells expressing human FcγRI
# T2 construct: whole, on cells; also called CD64; Fcγ receptor I
# Protocol: Labeled cells were detected using an LSRII FACS analyzer.
# Binding of humanized anti-CD70 (h1F6) antibody to CHO cells expressing full-length FcγRI was determined by competition binding. […] Labeled cells were detected using an LSRII FACS analyzer.
# [7] = target: T1, human CD70 on CD70 positive cell lines; experiment: 786-O cell binding; IC50 of the vcF2 conjugate over IC50 of the unconjugated IgG
# [8] = target: T1, human CD70 on CD70 positive cell lines; experiment: 786-O cell binding, apparent KD of the IgG
# T2 sequence (P12314 16-374): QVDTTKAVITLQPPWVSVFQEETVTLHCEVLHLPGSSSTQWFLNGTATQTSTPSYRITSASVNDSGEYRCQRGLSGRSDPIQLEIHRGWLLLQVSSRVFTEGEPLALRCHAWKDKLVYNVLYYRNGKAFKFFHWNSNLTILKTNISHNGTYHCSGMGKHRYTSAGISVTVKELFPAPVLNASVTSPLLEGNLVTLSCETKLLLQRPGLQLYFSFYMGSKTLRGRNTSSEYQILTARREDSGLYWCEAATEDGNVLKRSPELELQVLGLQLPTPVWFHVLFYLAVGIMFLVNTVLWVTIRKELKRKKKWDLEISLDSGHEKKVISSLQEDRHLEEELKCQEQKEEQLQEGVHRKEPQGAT
Binder,"cytotoxicity IC50 (mean, n = 3), 786-O cells [1] [ng/mL]","cytotoxicity IC50 (mean, n = 3), Caki-1 cells [1] [ng/mL]","cytotoxicity IC50, 786-O cells [1] [ng/mL]","cytotoxicity IC50, Caki-1 cells [1] [ng/mL]",other results
"h1F6 HMLA-F8 (humanized 1F6 derivative HMLA, hVHM and hVLA, conjugated to vcMMAF, eight drug units per antibody) (antibody, human IgG1, kappa, V domains shown, vcMMAF conjugated, loading level of eight drug units per antibody; attachment residues not stated) VH: QVQLVQSGAEVKKPGASVKVSCKASGYTFTNYGMNWVRQAPGQGLKWMGWINTYTGEPTYADAFKGRFAFSLDTSTSTAYMELRSLRSDDTAVYYCARDYGDYGMDYWGQGTTVTVSS VL: DIVMTQSPDSLAVSLGERATINCRASKSVSTSGYSFMHWYQQKPGQPPKLLIYLASNLESGVPDRFSGSGSGTDFTLTISSLQAEDVAVYYCQHSREVPWTFGQGTKVEIKR",2.03,2.07,2.8,1.8,
"h1F6 HHLA-F8 (HHLA conjugated to vcMMAF, eight drug units per antibody) (antibody, human IgG1, kappa, V domains shown, vcMMAF conjugated, loading level of eight drug units per antibody; attachment residues not stated) VH: QVQLVQSGAEVKKPGASVKVSCKASGYTFTNYGMNWVRQAPGQGLEWMGWINTYTGEPTYADAFKGRFAFSLDTSTSTAYLQINSLRSDDTAVYYCARDYGDYGMDYWGQGTTVTVSS VL: DIVMTQSPDSLAVSLGERATINCRASKSVSTSGYSFMHWYQQKPGQPPKLLIYLASNLESGVPDRFSGSGSGTDFTLTISSLQAEDVAVYYCQHSREVPWTFGQGTKVEIKR",1.93,1.87,2.3,1.4,
"humanized 1F6 antibody derivative HDLA (hVHD and hVLA) (antibody, human IgG1, kappa, V domains shown, Heavy chain is hVH-D + hIgG1 constant domain; also called h1F6 HDLA) VH: QVQLVQSGAEVKKPGASVKVSCKASGYTFTNYGMNWVRQAPGQGLEWMGWINTYTGEPTYADAFKGRVTMTTDTSTSTAYMELRSLRSDDTAVYYCARDYGDYGMDYWGQGTTVTVSS VL: DIVMTQSPDSLAVSLGERATINCRASKSVSTSGYSFMHWYQQKPGQPPKLLIYLASNLESGVPDRFSGSGSGTDFTLTISSLQAEDVAVYYCQHSREVPWTFGQGTKVEIKR",,,,,Kd [2]: 1.44 nM; Kd [3]: 0.55 nM; Kd [4]: 0.86 nM; Kd [5]: 1.29 nM
"h1F6 HELA-F8 (humanized 1F6 derivative HELA, hVHE and hVLA, conjugated to vcMMAF, eight drug units per antibody) (antibody, human IgG1, kappa, V domains shown, vcMMAF conjugated, loading level of eight drug units per antibody; attachment residues not stated) VH: QVQLVQSGAEVKKPGASVKVSCKASGYTFTNYGMNWVRQAPGQGLEWMGWINTYTGEPTYADAFKGRVTMTRDTSISTAYMELSRLRSDDTAVYYCARDYGDYGMDYWGQGTTVTVSS VL: DIVMTQSPDSLAVSLGERATINCRASKSVSTSGYSFMHWYQQKPGQPPKLLIYLASNLESGVPDRFSGSGSGTDFTLTISSLQAEDVAVYYCQHSREVPWTFGQGTKVEIKR",3.9,2.87,5.2,3.4,
"humanized 1F6 antibody derivative HHLA (hVHH and hVLA) (antibody, V domains shown, Heavy chain is hVH-H + hIgG1 constant domain; also called h1F6 HHLA) VH: QVQLVQSGAEVKKPGASVKVSCKASGYTFTNYGMNWVRQAPGQGLEWMGWINTYTGEPTYADAFKGRFAFSLDTSTSTAYLQINSLRSDDTAVYYCARDYGDYGMDYWGQGTTVTVSS VL: DIVMTQSPDSLAVSLGERATINCRASKSVSTSGYSFMHWYQQKPGQPPKLLIYLASNLESGVPDRFSGSGSGTDFTLTISSLQAEDVAVYYCQHSREVPWTFGQGTKVEIKR",,,,,Kd [2]: 0.29 nM; Kd [3]: 0.28 nM; Kd [4]: 0.15 nM; Kd [5]: 1.22 nM
"c1F6(293)-F8 (c1F6 conjugated to vcMMAF, eight drug units per antibody) (antibody, V domains shown, vcMMAF conjugated, loading level of eight drug units per antibody; attachment residues not stated) VH: QIQLVQSGPEVKKPGETVKISCKASGYTFTNYGMNWVKQAPGKGLKWMGWINTYTGEPTYADAFKGRFAFSLETSASTAYLQINNLKNEDTATYFCARDYGDYGMDYWGQGTSVTVSS VL: DIVLTQSPASLAVSLGQRATISCRASKSVSTSGYSFMHWYQQKPGQPPKLLIYLASNLESGVPARFSGSGSGTDFTLNIHPVEEEDAATYYCQHSREVPWTFGGGTKLEIKR",1.45,2.17,2.4,1.8,
"c1F6 (chimeric derivative of the anti-CD70 murine monoclonal antibody 1F6) (antibody, V domains shown, also called chimeric 1F6) VH: QIQLVQSGPEVKKPGETVKISCKASGYTFTNYGMNWVKQAPGKGLKWMGWINTYTGEPTYADAFKGRFAFSLETSASTAYLQINNLKNEDTATYFCARDYGDYGMDYWGQGTSVTVSS VL: DIVLTQSPASLAVSLGQRATISCRASKSVSTSGYSFMHWYQQKPGQPPKLLIYLASNLESGVPARFSGSGSGTDFTLNIHPVEEEDAATYYCQHSREVPWTFGGGTKLEIKR",,,,,Kd [2]: 0.3 nM; Kd [3]: 0.56 nM; Kd [4]: 0.26 nM; Kd [5]: 1.28 nM
"h1F6 HJLA-F8 (HJLA conjugated to vcMMAF, eight drug units per antibody) (antibody, human IgG1, kappa, vcMMAF conjugated, loading level of eight drug units per antibody; attachment residues not stated) heavy: not shown light: DIVMTQSPDSLAVSLGERATINCRASKSVSTSGYSFMHWYQQKPGQPPKLLIYLASNLESGVPDRFSGSGSGTDFTLTISSLQAEDVAVYYCQHSREVPWTFGQGTKVEIKRTVAAPSVFIFPPSDEQLKSGTASVVCLLNNFYPREAKVQWKVDNALQSGNSQESVTEQDSKDSTYSLSSTLTLSKADYEKHKVYACEVTHQGLSSPVTKSFNRGEC",3.03,2.3,3.4,2.2,
"h1F6 IgG4 (IgG4 isotype variant of h1F6 HJLA) (antibody, also called h1F6 G4) heavy: not shown light: DIVMTQSPDSLAVSLGERATINCRASKSVSTSGYSFMHWYQQKPGQPPKLLIYLASNLESGVPDRFSGSGSGTDFTLTISSLQAEDVAVYYCQHSREVPWTFGQGTKVEIKRTVAAPSVFIFPPSDEQLKSGTASVVCLLNNFYPREAKVQWKVDNALQSGNSQESVTEQDSKDSTYSLSSTLTLSKADYEKHKVYACEVTHQGLSSPVTKSFNRGEC",,,,,IC50 (read off the curve) [6]: ~30 nM
"h1F6 IgG1-vcF2 (conjugate of h1F6 IgG1 in Table 8) (antibody, vcF2 as printed (taken as vcMMAF, 2 drugs/antibody); attachment residues not stated, Its preparation is not described; also called IgG1 IgG-vcF2) heavy: not shown light: DIVMTQSPDSLAVSLGERATINCRASKSVSTSGYSFMHWYQQKPGQPPKLLIYLASNLESGVPDRFSGSGSGTDFTLTISSLQAEDVAVYYCQHSREVPWTFGQGTKVEIKRTVAAPSVFIFPPSDEQLKSGTASVVCLLNNFYPREAKVQWKVDNALQSGNSQESVTEQDSKDSTYSLSSTLTLSKADYEKHKVYACEVTHQGLSSPVTKSFNRGEC",,,,,IC50 IgG-vcF2 / IC50 IgG [7]: 1.3 ratio
h1F6 IgG1 A327C (antibody) heavy: not shown light: DIVMTQSPDSLAVSLGERATINCRASKSVSTSGYSFMHWYQQKPGQPPKLLIYLASNLESGVPDRFSGSGSGTDFTLTISSLQAEDVAVYYCQHSREVPWTFGQGTKVEIKRTVAAPSVFIFPPSDEQLKSGTASVVCLLNNFYPREAKVQWKVDNALQSGNSQESVTEQDSKDSTYSLSSTLTLSKADYEKHKVYACEVTHQGLSSPVTKSFNRGEC,,,,,Kd [8]: 0.5 nM
"h1F6 IgG1 D265C-vcF2 (conjugate in Table 8) (antibody, vcF2 as printed (taken as vcMMAF, 2 drugs/antibody); attachment residues not stated, Position 265 is Fc (EU) numbering; also called IgG1 D265C IgG-vcF2) heavy: not shown light: DIVMTQSPDSLAVSLGERATINCRASKSVSTSGYSFMHWYQQKPGQPPKLLIYLASNLESGVPDRFSGSGSGTDFTLTISSLQAEDVAVYYCQHSREVPWTFGQGTKVEIKRTVAAPSVFIFPPSDEQLKSGTASVVCLLNNFYPREAKVQWKVDNALQSGNSQESVTEQDSKDSTYSLSSTLTLSKADYEKHKVYACEVTHQGLSSPVTKSFNRGEC",,,,,IC50 IgG-vcF2 / IC50 IgG [7]: 0.9 ratio
"h1F6 IgG1 E269C-vcF2 (conjugate in Table 8) (antibody, vcF2 as printed (taken as vcMMAF, 2 drugs/antibody); attachment residues not stated, Position 269 is Fc (EU) numbering; also called IgG1 E269C IgG-vcF2) heavy: not shown light: DIVMTQSPDSLAVSLGERATINCRASKSVSTSGYSFMHWYQQKPGQPPKLLIYLASNLESGVPDRFSGSGSGTDFTLTISSLQAEDVAVYYCQHSREVPWTFGQGTKVEIKRTVAAPSVFIFPPSDEQLKSGTASVVCLLNNFYPREAKVQWKVDNALQSGNSQESVTEQDSKDSTYSLSSTLTLSKADYEKHKVYACEVTHQGLSSPVTKSFNRGEC",,,,,IC50 IgG-vcF2 / IC50 IgG [7]: 0.9 ratio
"h1F6 IgG1 A327C-vcF2 (conjugate in Table 8) (antibody, vcF2 as printed (taken as vcMMAF, 2 drugs/antibody); attachment residues not stated, Position 327 is Fc (EU) numbering; also called IgG1 A327C IgG-vcF2) heavy: not shown light: DIVMTQSPDSLAVSLGERATINCRASKSVSTSGYSFMHWYQQKPGQPPKLLIYLASNLESGVPDRFSGSGSGTDFTLTISSLQAEDVAVYYCQHSREVPWTFGQGTKVEIKRTVAAPSVFIFPPSDEQLKSGTASVVCLLNNFYPREAKVQWKVDNALQSGNSQESVTEQDSKDSTYSLSSTLTLSKADYEKHKVYACEVTHQGLSSPVTKSFNRGEC",,,,,IC50 IgG-vcF2 / IC50 IgG [7]: 1.1 ratio
h1F6 IgG1 E269C (antibody) heavy: not shown light: DIVMTQSPDSLAVSLGERATINCRASKSVSTSGYSFMHWYQQKPGQPPKLLIYLASNLESGVPDRFSGSGSGTDFTLTISSLQAEDVAVYYCQHSREVPWTFGQGTKVEIKRTVAAPSVFIFPPSDEQLKSGTASVVCLLNNFYPREAKVQWKVDNALQSGNSQESVTEQDSKDSTYSLSSTLTLSKADYEKHKVYACEVTHQGLSSPVTKSFNRGEC,,,,,Kd [8]: 0.8 nM
h1F6 IgG1 D265C (antibody) heavy: not shown light: DIVMTQSPDSLAVSLGERATINCRASKSVSTSGYSFMHWYQQKPGQPPKLLIYLASNLESGVPDRFSGSGSGTDFTLTISSLQAEDVAVYYCQHSREVPWTFGQGTKVEIKRTVAAPSVFIFPPSDEQLKSGTASVVCLLNNFYPREAKVQWKVDNALQSGNSQESVTEQDSKDSTYSLSSTLTLSKADYEKHKVYACEVTHQGLSSPVTKSFNRGEC,,,,,Kd [8]: 1.1 nM
